Experimental data taken from paper PMC8390497, “A guanidine-degrading enzyme controls genomic stability of ethylene-producing cyanobacteria” (Nature Communications, 2021).

Substrate: N=C(N)N
Assay: HPLC guanidine / GC-MS urea quantification, velocity versus guanidine concentration
Assay type: biochemical, Synechocystis sp. PCC 6803
Settings: 20 mM Tris-HCl pH 7.5, 50 mM NaCl, 1 mM MnCl2, 30 °C, His-tagged enzyme, no ATP

B1: Sll1077-His (Synechocystis sp. PCC 6803 substr. Kazusa) (protein)
chain: MSDATPFRPPSEAEEALIKETRLPLTGWQQEVDQGLTYGLEAAASIKDRSIPTFSRGELPHYAGINTFMKAPYLEDVREVGKYDVAIVGVPHDSGTTYRPGTRFGPQGIRRISALYTPYNFEMGVDLREQISLCDVGDIFTIPANNEKSFDQISKGIAHIFSSGAFPIILGGDHSIGFPTVRGICRHLGDKKVGIIHFDRHVDTQETDLDERMHTCPWFHATNMANAPAKNLVQLGIGGWQVPRQGVKVCRERATNILTVTDITEMSLDAAADFAIARATDGTDCVWISFDIDCIDAGFVPGTGWPEPGGLLPREALYLLKRIIRETNVCGMEVVEVSPPYDISDMTSLMATRVICDTMAHLVVSGQLPRTEKPAYIHAEANMAVDEPWQ
notes: full-length with C-terminal 6xHis tag kept (no XhoI linker, pPB316), overexpressed in and purified from Synechocystis 6803 strain PB816W
  Km: 5.3 ± 1.2 mM
  kcat: 0.040 ± 0.010 s⁻¹
